Read-outs that look alike come from different tables or passages of the source.
Experiments:
[1] = target: Human ang2 protein (Sino Biological, Cat No.: 10691-H08H) (human) (UniProt O15123); assay: ELISA: human ang2 protein (Sino Biological 10691-H08H) coated at 0.25 ug/ml, antibody titrated, HRP-conjugated secondary antibody, OD450-OD620, GraphPad fit (fit of a flat control curve)
[2] = target: recombinant biotinylated hAngiopoietin-2 protein (R&D, Cat. No.: BT623B/CF) (human) (UniProt O15123); assay: blocking ELISA: antibody titrated against biotinylated hAng2 (300 ng/ml final); blocked binding to coated hTie2 protein; Avidin-HRP detection (fit of a flat control curve)
Sequence of recombinant biotinylated hAngiopoietin-2 protein (R&D, Cat. No.: BT623B/CF) (human) (O15123 19-496 limits assumed): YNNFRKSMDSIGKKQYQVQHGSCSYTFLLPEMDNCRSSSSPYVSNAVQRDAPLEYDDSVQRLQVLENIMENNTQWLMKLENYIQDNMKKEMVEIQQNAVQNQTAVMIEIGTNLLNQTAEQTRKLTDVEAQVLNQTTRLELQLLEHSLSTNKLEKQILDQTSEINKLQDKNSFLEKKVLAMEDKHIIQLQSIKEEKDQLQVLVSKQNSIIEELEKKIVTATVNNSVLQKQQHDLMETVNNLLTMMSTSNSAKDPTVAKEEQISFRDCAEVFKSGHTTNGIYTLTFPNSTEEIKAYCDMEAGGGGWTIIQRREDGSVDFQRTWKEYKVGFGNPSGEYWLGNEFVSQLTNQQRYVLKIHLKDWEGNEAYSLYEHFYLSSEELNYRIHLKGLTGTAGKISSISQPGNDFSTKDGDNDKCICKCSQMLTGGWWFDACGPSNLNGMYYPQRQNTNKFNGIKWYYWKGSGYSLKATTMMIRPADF

[3] = target: recombinant biotinylated hAngiopoietin-2 protein (R&D, Cat. No.: BT623B/CF) (human) (UniProt O15123); assay: as above; remark: listed apart in the source
[4] = target: recombinant biotinylated hAngiopoietin-2 protein (R&D, Cat. No.: BT623B/CF) (human) (UniProt O15123); assay: ELISA: biotin Ang2 (R&D BT623B/CF) captured on coated streptavidin (SA), antibody titrated, anti-human IgG-HRP, OD450-OD620, GraphPad fit (fit of a flat control curve)
[5] = target: Cynomolgus monkey Ang2 C-terminal domain (Lys274-Phe495) (cynomolgus monkey); assay: ForteBio BLI, antibody on AHQ sensor, 100 nM antigen, 1:1 model
Sequence of Cynomolgus monkey Ang2 C-terminal domain (Lys274-Phe495) (cynomolgus monkey) (chain, as listed by the source, form in doubt): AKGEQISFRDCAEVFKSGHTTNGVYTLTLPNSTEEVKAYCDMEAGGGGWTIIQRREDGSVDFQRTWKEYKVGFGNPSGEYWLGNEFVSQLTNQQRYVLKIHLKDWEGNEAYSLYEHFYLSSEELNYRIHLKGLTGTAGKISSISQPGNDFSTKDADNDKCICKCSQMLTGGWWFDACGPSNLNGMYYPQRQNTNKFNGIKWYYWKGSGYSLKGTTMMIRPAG

Sequence of Human ang2 protein (Sino Biological, Cat No.: 10691-H08H) (human) (O15123 19-496 limits assumed): as the sequence (O15123 19-496 limits assumed) above

EC50 [1]	IC50 [2]	IC50 [3]	EC50 [4]	Kd [5]	Substance
16.8 nM	16.9 nM	24.8 nM	0.00807 nM	–	IgG (antibody)
–	–	–	–	1.04 nM	Nesvacumab (Regeneron) (antibody)
